This assay deals with Mis16 (S. pombe), full length, affinity tag removed (S. pombe, UniProt O94244 1-430). Briefly: ITC. On the technique in general: ITC needs no label: the signal is the heat of the interaction.

The results in this text go back to publication PMC6677171 (2019).

Chain of Mis16 (S. pombe), full length, affinity tag removed (O94244 whole entry): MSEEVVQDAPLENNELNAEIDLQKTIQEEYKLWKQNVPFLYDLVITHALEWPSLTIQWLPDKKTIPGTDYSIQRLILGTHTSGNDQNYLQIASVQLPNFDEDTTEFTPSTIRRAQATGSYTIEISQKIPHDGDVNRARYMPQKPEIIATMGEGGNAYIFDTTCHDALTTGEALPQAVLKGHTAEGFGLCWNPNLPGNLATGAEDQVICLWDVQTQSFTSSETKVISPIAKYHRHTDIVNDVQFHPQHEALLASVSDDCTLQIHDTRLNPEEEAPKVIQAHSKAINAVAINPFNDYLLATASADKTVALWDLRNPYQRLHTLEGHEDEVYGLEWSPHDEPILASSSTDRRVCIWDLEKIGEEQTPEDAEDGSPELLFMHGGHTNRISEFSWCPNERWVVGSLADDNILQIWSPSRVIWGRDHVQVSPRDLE

In the case of LHNRVFLRANVRAVKM [Mis19 C-terminal peptide (residues 97–112) R105A], the Kd – broadly, the constant that tells how readily two partners part at equilibrium – is over 1000 nM.
